In the assay the target is FMDV C/PHI/3/1994 virus (Foot-and-mouth disease virus C/PHI/3/1994).

Results on 2 molecules are retold here after publication PMC13216289.

Numbering of substitutions follows the chain as printed.

B1: Ab17 (antibody, V domains shown)
VH: QVQLRESGPSSLKPSQTLSLTCAVSGFSLSTYAVGWVRQAPGKALEWVGDITSSGDTFYNPALKSRFSITKDNSKNQVSLSVGSVTPEDTATFYCTRLTCGDDCSTAWHNFDAWGQGLLVTVSS
VL: SYELTQPTSVSVALGQTAKITCSGDLLDVQYTQWYQQKPGQGPVRVIYKDSERPSGISDRFSGSSSGKTATLIISGAQTEDEADYYCQSTDSSQYGIFGRGTTLTVL
Consider B1, for which the VNT: minimum antibody concentration that neutralises C/PHI/3/1994 virus is 213 nM.

B2: Ab49 (antibody, V domains shown)
VH: QVQLRESGPSLVKPSQTLSLTCTVSGFSLTNYAVGWVRQAPGKAIQSLSIISTTGDTYYNPALKSRLSITKDNSKSQVSLSVSSVAPEDTATYYCVKFCGNADSAGHGWGCDYGDNENWGQGLLVTVSS
VL: B1 VL with V29E, I73T, T90F, D91Y, Q94T, Y95D, G96P, I97V, R100S
As to B2, the VNT: minimum antibody concentration that neutralises C/PHI/3/1994 virus was 1150 nM.
